Test results from paper PMC8042219, “Expression of Novel L-Leucine Dehydrogenase and High-Level Production of L-Tert-Leucine Catalyzed by Engineered Escherichia coli” (Frontiers in Bioengineering and Biotechnology, 2021).

Tests used:
BbLeuDH = biological target: T1, BbLeuDH (Bdellovibrio bacteriovorus, UniProt A0A1Z3N8C0); assay: NADH absorbance at […] nm, specific activity; type: biochemical; conditions: reductive amination, 2 mM TMP, 0.1 mM NADH, 500 mM NH4Cl-NH3 buffer pH 9.5, 30 °C
T1 construct: gene B9G79_08965
T1 sequence (A0A1Z3N8C0 1-376): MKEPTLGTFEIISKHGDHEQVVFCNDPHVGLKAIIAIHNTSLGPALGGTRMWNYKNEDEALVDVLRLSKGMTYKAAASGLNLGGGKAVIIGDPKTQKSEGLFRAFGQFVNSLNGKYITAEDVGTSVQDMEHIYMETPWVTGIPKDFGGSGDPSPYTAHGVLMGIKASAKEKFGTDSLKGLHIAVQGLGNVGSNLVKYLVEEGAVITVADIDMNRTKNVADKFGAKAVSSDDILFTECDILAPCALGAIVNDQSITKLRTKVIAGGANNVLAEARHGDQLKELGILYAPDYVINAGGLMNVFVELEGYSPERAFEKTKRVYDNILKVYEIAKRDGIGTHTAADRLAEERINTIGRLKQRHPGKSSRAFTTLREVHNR

TbLeuDH = biological target: T2, TbLeuDH (Staphylospora marina, UniProt Z9JLC0NN60); assay: NADH absorbance at […] nm, specific activity; type: biochemical; conditions: reductive amination, 2 mM TMP, 0.1 mM NADH, 500 mM NH4Cl-NH3 buffer pH 9.5, 30 °C
T2 sequence (Z9JLC0NN60 1-365): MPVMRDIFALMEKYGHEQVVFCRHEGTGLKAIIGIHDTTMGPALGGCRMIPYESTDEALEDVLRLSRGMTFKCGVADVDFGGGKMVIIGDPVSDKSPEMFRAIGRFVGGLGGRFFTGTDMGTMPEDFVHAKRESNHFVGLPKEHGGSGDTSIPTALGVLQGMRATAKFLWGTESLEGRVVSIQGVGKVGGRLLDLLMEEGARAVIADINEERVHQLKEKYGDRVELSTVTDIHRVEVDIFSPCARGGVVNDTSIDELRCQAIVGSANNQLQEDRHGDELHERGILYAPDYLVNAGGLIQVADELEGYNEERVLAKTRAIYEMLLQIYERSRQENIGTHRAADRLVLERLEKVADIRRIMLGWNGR

CsLeuDH = biological target: T3, CsLeuDH (Caldanaerobacter subterraneus, UniProt U5CQF4); assay: NADH absorbance at […] nm, specific activity; type: biochemical; conditions: reductive amination, 2 mM TMP, 0.1 mM NADH, 500 mM NH4Cl-NH3 buffer pH 9.5, 30 °C
T3 construct: gene O163_07585
T3 sequence (U5CQF4 1-355): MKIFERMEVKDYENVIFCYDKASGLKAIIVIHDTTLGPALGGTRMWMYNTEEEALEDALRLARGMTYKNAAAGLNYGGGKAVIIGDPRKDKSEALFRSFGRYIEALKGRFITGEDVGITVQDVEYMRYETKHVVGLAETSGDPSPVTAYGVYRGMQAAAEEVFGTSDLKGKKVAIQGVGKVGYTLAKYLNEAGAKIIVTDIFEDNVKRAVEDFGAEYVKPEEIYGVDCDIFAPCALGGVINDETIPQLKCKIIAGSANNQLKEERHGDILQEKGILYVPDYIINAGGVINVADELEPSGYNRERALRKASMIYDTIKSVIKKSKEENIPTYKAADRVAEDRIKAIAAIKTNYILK

purified protein [1] = substrate: CC(C)(C)C(=O)C(=O)O; assay: purified protein; type: biochemical, Planifilum fimeticola; conditions: reductive amination, TMP varied 1-20 mM, 0.3 mM NADH; standard assay 500 mM NH4Cl-NH3 buffer pH 9.5, 30 °C; pH 9.5; 30.0 °C
purified protein [2] = substrate: CC(C)C[C@H](N)C(=O)O; assay: purified protein; type: biochemical, Planifilum fimeticola; conditions: oxidative deamination, L-leucine varied 0.1-3 mM, 1 mM NAD+
purified protein [3] = substrate: NC(=O)C1=CN([C@@H]2O[C@H](COP(=O)(O)OP(=O)(O)OC[C@H]3O[C@@H](n4cnc5c(N)ncnc54)[C@H](O)[C@@H]3O)[C@@H](O)[C@H]2O)C=CC1; assay: purified protein; type: biochemical, Planifilum fimeticola; conditions: reductive amination, NADH varied 0.05-0.35 mM, 40 mM TMP; standard assay 500 mM NH4Cl-NH3 buffer pH 9.5, 30 °C; pH 9.5; 30.0 °C; varied: cofactor
purified protein [4] = substrate: NC(=O)c1ccc[n+]([C@@H]2O[C@H](COP(=O)(O)OP(=O)(O)OC[C@H]3O[C@@H](n4cnc5c(N)ncnc54)[C@H](O)[C@@H]3O)[C@@H](O)[C@H]2O)c1; assay: purified protein; type: biochemical, Planifilum fimeticola; conditions: oxidative deamination, NAD+ varied 0.1-4 mM, 4 mM L-leucine; varied: cofactor

CC(C)(C)C(=O)C(=O)O [Trimethylpyruvate]
NADH absorbance at 340 nm, specific activity (BbLeuDH): All four soluble leucine dehydrogenases have catalytic activity for TMP | NADH absorbance at 340 nm, specific activity (TbLeuDH): All four soluble leucine dehydrogenases have catalytic activity for TMP | NADH absorbance at 340 nm, specific activity (CsLeuDH): All four soluble leucine dehydrogenases have catalytic activity for TMP

B1: PfLeuDH (Planifilum fimeticola) (protein)
chain: MKWFDYMERYDYEQLIFCQDKNSGLKAIIAIHDTTLGPALGGVRMWKYDSEEEAIVDALRLARGMTYKAAAAGLNLGGGKTVIIGDPRKDKNEEMFRALGRFIQGLNGRYITAEDVGTTEEDMDIIHQETRFVTGVSPAFGSSGNPSPVTAYGVYRGMKAAAKIAFGSDSLEGKTVAVQGVGSVAYHLCKHLHEEGARLIVTDIVRENVERAVRDFGAESVAPDKIYDVECDIFSPCALGAIINDETLPRLKCRVVAGSANNQLKEERHGDRLEELGIIYVPDYVINAGGLINVADELFGYNRERAMKKVETIYDNVLRVFEIAKRDGIPSYKAADRMAEERIESLTRSRSTFLRNERNVLNMV
Km (purified protein [1]): 3080 µM | Vmax (purified protein [1]): 58.6 µmol/min/mg | kcat (purified protein [1]): 39.1 s⁻¹ | kcat/Km (purified protein [1]): 12700 M⁻¹ s⁻¹ | Km (purified protein [2]): 100 µM | Vmax (purified protein [2]): 3.49 µmol/min/mg | kcat (purified protein [2]): 2.33 s⁻¹ | kcat/Km (purified protein [2]): 23300 M⁻¹ s⁻¹ | Km (purified protein [3]): 60 µM | Vmax (purified protein [3]): 9.09 µmol/min/mg | kcat (purified protein [3]): 6.06 s⁻¹ | kcat/Km (purified protein [3]): 101000 M⁻¹ s⁻¹ | Km (purified protein [4]): 110 µM | Vmax (purified protein [4]): 2.72 µmol/min/mg | kcat (purified protein [4]): 1.81 s⁻¹ | kcat/Km (purified protein [4]): 16400 M⁻¹ s⁻¹
